Here are results for 2 molecules from patent US20170313764A1 (ACADEMISCH MEDISCH CENTRUM, published 2017).

The target of experiment [1] is E1E2 of HCV isolate UKN4.11.1 (genotype 4) (Hepatitis C virus genotype 4). The experiment in a line: cell-based or functional assay.
Experiment [2] deals with E1E2 of HCV isolate AMS.4d.20875969 (genotype 4d) (Hepatitis C virus genotype 4d). The experiment in a line: cell-based or functional assay.
Experiment [3] deals with E1E2 of HCV isolate AMS.3a.21071213 (genotype 3a) (Hepatitis C virus genotype 3a). The experiment in a line: cell-based or functional assay.
Experiment [4] has as its target E1E2 of HCV isolate H77 (genotype 1a), wild type (Hepatitis C virus genotype 1a, strain …, UniProt P27958 192-383; P27958 384-746). Put plainly: cell-based or functional assay.
Experiment [5] addresses E1E2 of HCV isolate H77 with single mutation W616A (Hepatitis C virus genotype 1a, strain …, UniProt P27958 192-383; P27958 384-746). Put plainly: ELISA, GNA-captured E1E2 lysate; EC50 wild type / EC50 mutant.
Experiment [6] has as its target E1E2 of HCV isolate H77 with single mutation R657A (Hepatitis C virus genotype 1a, strain …, UniProt P27958 192-383; P27958 384-746). Described as above.
The target of experiment [7] is E1E2 of HCV isolate H77 with single mutation P664A (Hepatitis C virus genotype 1a, strain …, UniProt P27958 192-383; P27958 384-746). Described as above.
Experiment [8] deals with E1E2 of HCV isolate H77 with single mutation V538A (Hepatitis C virus genotype 1a, strain …, UniProt P27958 192-383; P27958 384-746). The description is as above.
The target in experiment [9] is E1E2 of HCV isolate H77 with single mutation G530A (Hepatitis C virus genotype 1a, strain …, UniProt P27958 192-383; P27958 384-746). The experiment is described as above.
Experiment [10] addresses E1E2 of HCV isolate H77 with single mutation W529A (Hepatitis C virus genotype 1a, strain …, UniProt P27958 192-383; P27958 384-746). The experiment is described as above.
Experiment [11] has as its target E1E2 of HCV isolate H77 with single mutation D535A (Hepatitis C virus genotype 1a, strain …, UniProt P27958 192-383; P27958 384-746). The description is as above.
Experiment [12] deals with E1E2 of HCV isolate H77 with single mutation T534A (Hepatitis C virus genotype 1a, strain …, UniProt P27958 192-383; P27958 384-746). The experiment is described as above.
Experiment [13] concerns the target E1E2 of HCV isolate H77 with single mutation F442A (Hepatitis C virus genotype 1a, strain …, UniProt P27958 192-383; P27958 384-746). The experiment is described as above.
Experiment [14] concerns the target E1E2 of HCV isolate H77 with single mutation A439G (Hepatitis C virus genotype 1a, strain …, UniProt P27958 192-383; P27958 384-746). Described as above.
Experiment [15] deals with E1E2 of HCV isolate H77 with single mutation N209A (in E1) (Hepatitis C virus genotype 1a, strain …, UniProt P27958 192-383; P27958 384-746). The experiment is described as above.
Experiment [16] has as its target E1E2 of HCV isolate H77 with single mutation L413A (Hepatitis C virus genotype 1a, strain …, UniProt P27958 192-383; P27958 384-746). Described as above.
Experiment [17] addresses E1E2 of HCV isolate H77 with single mutation S424A (Hepatitis C virus genotype 1a, strain …, UniProt P27958 192-383; P27958 384-746). The description is as above.
Experiment [18] addresses E1E2 of HCV isolate H77 with single mutation N415A (Hepatitis C virus genotype 1a, strain …, UniProt P27958 192-383; P27958 384-746). The description is as above.
The target in experiment [19] is E1E2 of HCV isolate H77 with single mutation G418A (Hepatitis C virus genotype 1a, strain …, UniProt P27958 192-383; P27958 384-746). Described as above.
The target of experiment [20] is E1E2 of HCV isolate H77 with single mutation N423A (Hepatitis C virus genotype 1a, strain …, UniProt P27958 192-383; P27958 384-746). The description is as above.
Experiment [21] deals with E1E2 of HCV isolate H77 with single mutation T435A (Hepatitis C virus genotype 1a, strain …, UniProt P27958 192-383; P27958 384-746). The experiment is described as above.
Experiment [22] addresses E1E2 of HCV isolate H77 with single mutation W420A (Hepatitis C virus genotype 1a, strain …, UniProt P27958 192-383; P27958 384-746). The experiment is described as above.

B1: AT15-012 (antibody, V domains shown)
VH: QVQLVQSGAEVKKPGSSVKVSCKASGGNFNIFPITWVRQAPGQGLEWMGEIIPMLGTPEYAQKFQGRVTITADKSTGTAFMELSSLRSEDTAVYYCARTETTLPGTLFFVYYFHFWGQGTPVTVSS
VL: EIVMTQSPVTLSVSPGERAILSCRASQSVSSSLAWYQQKPGQAPRLLIYGASTRATGVPARFSGSGSGTEFTLTISSVQSEDYAIYFCQQYNDRPPWTFGQGTKVEIK
notes: also called AT15-12
For B1, the “IC50, HCVpp neutralization” value in experiment [1] is 1.66 µg/mL; in [2] it was 1.16 µg/mL; in [3] it was 0.9 µg/mL; in [4], 0.26 µg/mL. Further, the “relative binding, mutant vs wild type” value in [5] amounted to 71%; in experiment [6], 138%; in [7], 83%; in experiment [8] it was 103%; in experiment [9] it was 48%; in experiment [10], 77%. Further, the “relative binding, mutant vs wild type” value was 52% in experiment [11]; 95% in experiment [12]; 60% in [13]; 94% in experiment [14]; 99% in experiment [15]; 132% in [16]. Also, the “relative binding, mutant vs wild type” value in experiment [17] was 67%; in experiment [18], 101%; in experiment [19], 124%; in experiment [20], 132%; in experiment [21], 99%; in [22], 111%.

B2: AT15-009 (antibody, V domains shown)
VH: QVLLVQSGAEVKKPGSSVKVSCKASGGTFSTYAISWLRQAPGQGPEWMGGIVPMFGITNYAQHFQGRITITADKSTSTAYMELSSLGSEDTAVYFCARDLRSGGTFFSRGFDLWGPGTKVTVSS
VL: EIVLTQSPGTLSLSPGERATLSCRASQSVSSSFLTWYQQKPGQAPRLLIFDASTRATGVPDRFSGSGSGTDFTLTISRLEPEDFGVYYCQQFDSSPTFGGGTKVEIK
As to B2, the “IC50, HCVpp neutralization” value turned out to be 1.33 µg/mL in experiment [1], 2.26 µg/mL in experiment [2], 0.71 µg/mL in experiment [3] and 0.14 µg/mL in [4]. Further, the “relative binding, mutant vs wild type” value is 29% in experiment [5]; 123% in experiment [6]; 101% in [7]; 126% in experiment [8]; 52% in experiment [9]; 82% in experiment [10]. The “relative binding, mutant vs wild type” value in [11] amounted to 55%; in experiment [12], 93%; in experiment [13], 27%; in experiment [14], 97%; in experiment [15], 105%; in experiment [16], 112%. For the same molecule, the “relative binding, mutant vs wild type” value in [17] was determined as 106%; in experiment [18], 116%; in experiment [19], 112%; in [20] it was 111%; in experiment [21] it was 101%; in experiment [22] it was 102%.
